Experimental findings from patent publication US20040059519A1 are described below.

Assay [1] deals with Human chorionic gonadotropin (human) (UniProt P01215). Kind of assay: bead sandwich, flow cytometry; capture B2 beads, hCG 20.0 ug/mL. For orientation: In flow cytometry, cells or beads pass a laser one at a time.
Assay [2] concerns the target Alpha fetoprotein (UniProt P02771). The assay is described as follows: MAB602 capture beads, flow cytometry; AFP 0.0 ng/mL, anti-AFP probe.
The target is the same in assay [3]. The assay is described as follows: MAB602 capture beads, flow cytometry; AFP 0.1 ng/mL, anti-AFP probe.
Assay [4] shares this target. The assay is described as follows: MAB602 capture beads, flow cytometry; AFP 1.0 ng/mL, anti-AFP probe.
In assay [5] the target is Human chorionic gonadotropin (human) (UniProt P01215). The assay is described as follows: bead sandwich, flow cytometry; capture B2 beads, no hCG (background).
Assay [6] concerns the target Alpha fetoprotein (UniProt P02771). The assay is described as follows: MAB602 capture beads, flow cytometry; AFP 10.0 ng/mL, anti-AFP probe.
Assay [7] has the same target. The assay is described as follows: MAB602 capture beads, flow cytometry; AFP 100.0 ng/mL, anti-AFP probe.
Assay [8] shares this target. Kind of assay: MAB602 capture beads, flow cytometry; AFP 1000.0 ng/mL, anti-AFP probe.
Assay [9] addresses Human chorionic gonadotropin (human) (UniProt P01215). Kind of assay: bead sandwich, flow cytometry; capture B1 (AB633) beads, hCG 20.0 ug/mL.
The target is the same in assay [10]. The assay is described as follows: bead sandwich, flow cytometry; capture B1 (AB633) beads, no hCG (background).

UniProt P01215, sequence (P01215 25-116, chain 1 of 2, other chains not shown): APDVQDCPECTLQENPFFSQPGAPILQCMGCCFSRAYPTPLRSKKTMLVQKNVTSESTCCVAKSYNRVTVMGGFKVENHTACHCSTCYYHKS
UniProt P02771, sequence (P02771 19-609 limits assumed): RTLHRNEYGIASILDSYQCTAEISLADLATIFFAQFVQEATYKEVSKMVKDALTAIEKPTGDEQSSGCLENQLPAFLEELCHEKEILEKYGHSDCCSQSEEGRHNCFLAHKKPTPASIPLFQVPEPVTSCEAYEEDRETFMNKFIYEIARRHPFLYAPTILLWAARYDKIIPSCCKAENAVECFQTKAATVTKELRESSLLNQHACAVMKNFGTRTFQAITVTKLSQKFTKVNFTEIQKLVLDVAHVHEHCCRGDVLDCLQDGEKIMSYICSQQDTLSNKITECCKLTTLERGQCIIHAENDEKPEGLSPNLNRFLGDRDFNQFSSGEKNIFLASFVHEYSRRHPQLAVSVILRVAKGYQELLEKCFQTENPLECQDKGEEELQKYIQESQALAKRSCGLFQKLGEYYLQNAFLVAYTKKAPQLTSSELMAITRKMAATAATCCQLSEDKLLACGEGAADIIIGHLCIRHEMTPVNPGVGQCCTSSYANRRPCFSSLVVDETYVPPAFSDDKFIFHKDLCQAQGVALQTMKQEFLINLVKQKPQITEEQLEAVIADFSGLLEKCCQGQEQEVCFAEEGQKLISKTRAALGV

In the case of MAB602 monoclonal anti-hCG antibody, the MIF of Fm was 886 in assay [1]; 48 in assay [2]; 48 in assay [3]; 48 in assay [4]; 56 in [5]; 48 in assay [6]. Moreover, the MIF of Fm in assay [7] amounted to 48; in assay [8], 52; in assay [9], 107; in [10] it was 33.
